Results reported in patent US20240352452, “CRISPR-BASED PROTEIN BARCODING AND SURFACE ASSEMBLY” (The Brigham and Women's Hospital, Inc., published 2024).

Columns and labels:
dCas9-scFv B1-182.1 = dCas9-scFv B1-182.1 (UniProt Q99ZW2 SEQ:1-1368); test: dsDNA microarray; detected via spike antigen and CR3022; PAM NGG; conditions: tags: C-terminal anti-spike scFv B1-182.1 fusion and 6His (Addgene #186421); label: Cy3-dUTP
dCas9-6His [1] = biological target: T1, dCas9-6His (UniProt Q99ZW2 SEQ:1-1368); test: dsDNA microarray, perfect match; PAM NGG; conditions: tags: C-terminal 6His (pdCas9-bacteria, Addgene #44249 derived); label: Cy3-dUTP
dCas9-myc [2] = biological target: T2, dCas9-myc (UniProt Q99ZW2 SEQ:1-1368); test: dsDNA microarray, anti-myc; PAM NGG; conditions: label: Cy3-dUTP
dCas9-myc [3] = biological target: T2, dCas9-myc; test: no-PAM control; binding depended on PAM; conditions: label: Cy3-dUTP
dCas9-HA [4] = biological target: T3, dCas9-HA (UniProt Q99ZW2 SEQ:1-1368); test: dsDNA microarray, anti-HA; PAM NGG; conditions: label: Cy3-dUTP
dCas9-6His [5] = biological target: T1, dCas9-6His; test: dsDNA microarray, anti-6His; PAM NGG; 37 C 16 h, 50 mM Tris pH 7.4, 150 mM NaCl; conditions: tags: C-terminal 6His (pdCas9-bacteria, Addgene #44249 derived); label: Cy3-dUTP
dCas9-HA [6] = biological target: T3, dCas9-HA; test: no-PAM control; binding depended on PAM; conditions: label: Cy3-dUTP
dCas9-6His [7] = biological target: T1, dCas9-6His; test: off-target probe with PAM; dsDNA microarray; conditions: tags: C-terminal 6His (pdCas9-bacteria, Addgene #44249 derived); label: Cy3-dUTP

B1: sgRNA spacer UCCAUAG ; probe for G5 (ssRNA ; dsDNA)
RNA: UCCAUAGAUUUCUCCGUGAGGUUUUAGAGCUAGAAAUAGCAAGUUAAAAUAAGGCUAGUCCGUUAUCAACUUGAAAAAGUGGCACCGAGUCGGUGC
DNA 1: GAGCGACGCTGCACCACTCACGGAGAAATCTATGGACCCGACCTCACCCG
DNA 2: CGGGTGAGGTCGGGTCCATAGATTTCTCCGTGAGTGGTGCAGCGTCGCTC
Does B1 bind (dCas9-scFv B1-182.1)?
Result: binds

Does B1 bind (dCas9-6His [1])?
Result: binds

B2: sgRNA spacer AUAAAAG ; probe for G2 (ssRNA ; dsDNA)
RNA: AUAAAAGAAACCCUCCGCAUGUUUUAGAGCUAGAAAUAGCAAGUUAAAAUAAGGCUAGUCCGUUAUCAACUUGAAAAAGUGGCACCGAGUCGGUGC
DNA 1: GAGCGACGCTGCACCAATGCGGAGGGTTTCTTTTATCCCGACCTCACCCG
DNA 2: CGGGTGAGGTCGGGATAAAAGAAACCCTCCGCATTGGTGCAGCGTCGCTC
Does B2 bind (dCas9-myc [2])?
Result: binds

B3: sgRNA spacer AUAAAAG ; probe for G2, no PAM (ssRNA ; dsDNA)
RNA: AUAAAAGAAACCCUCCGCAUGUUUUAGAGCUAGAAAUAGCAAGUUAAAAUAAGGCUAGUCCGUUAUCAACUUGAAAAAGUGGCACCGAGUCGGUGC
DNA 1: GAGCGACGCTGCACGAATGCGGAGGGTTTCTTTTATCCCGACCTCACCCG
DNA 2: CGGGTGAGGTCGGGATAAAAGAAACCCTCCGCATTCGTGCAGCGTCGCTC
Does B3 bind (dCas9-myc [3])?
Result: no binding

B4: sgRNA spacer CCGUACC ; probe for G1 (ssRNA ; dsDNA)
RNA: CCGUACCUAGAUACACUCAAGUUUUAGAGCUAGAAAUAGCAAGUUAAAAUAAGGCUAGUCCGUUAUCAACUUGAAAAAGUGGCACCGAGUCGGUGC
DNA 1: GAGCGACGCTGCACCATTGAGTGTATCTAGGTACGGCCCGACCTCACCCG
DNA 2: CGGGTGAGGTCGGGCCGTACCTAGATACACTCAATGGTGCAGCGTCGCTC
Does B4 bind (dCas9-HA [4])?
Result: binds

Does B4 bind (dCas9-6His [5])?
Result: binds

B5: sgRNA spacer CCGUACC ; probe for G1, no PAM (ssRNA ; dsDNA)
RNA: CCGUACCUAGAUACACUCAAGUUUUAGAGCUAGAAAUAGCAAGUUAAAAUAAGGCUAGUCCGUUAUCAACUUGAAAAAGUGGCACCGAGUCGGUGC
DNA 1: GAGCGACGCTGCACGATTGAGTGTATCTAGGTACGGCCCGACCTCACCCG
DNA 2: CGGGTGAGGTCGGGCCGTACCTAGATACACTCAATCGTGCAGCGTCGCTC
Does B5 bind (dCas9-HA [6])?
Result: no binding

B6: sgRNA spacer CCGUACC ; probe for G2 (ssRNA ; dsDNA)
RNA: CCGUACCUAGAUACACUCAAGUUUUAGAGCUAGAAAUAGCAAGUUAAAAUAAGGCUAGUCCGUUAUCAACUUGAAAAAGUGGCACCGAGUCGGUGC
DNA 1: GAGCGACGCTGCACCAATGCGGAGGGTTTCTTTTATCCCGACCTCACCCG
DNA 2: CGGGTGAGGTCGGGATAAAAGAAACCCTCCGCATTGGTGCAGCGTCGCTC
Does B6 bind (dCas9-6His [7])?
Result: no binding

B7: sgRNA spacer CACUGUU ; probe for G4 (ssRNA ; dsDNA)
RNA: CACUGUUUAACAAGCCCGUCGUUUUAGAGCUAGAAAUAGCAAGUUAAAAUAAGGCUAGUCCGUUAUCAACUUGAAAAAGUGGCACCGAGUCGGUGC
DNA 1: GAGCGACGCTGCACCAGACGGGCTTGTTAAACAGTGCCCGACCTCACCCG
DNA 2: CGGGTGAGGTCGGGCACTGTTTAACAAGCCCGTCTGGTGCAGCGTCGCTC
Does B7 bind (dCas9-6His [1])?
Result: binds

B8: sgRNA spacer AGAGACU ; probe for G3 (ssRNA ; dsDNA)
RNA: AGAGACUGCCCGACACAUCUGUUUUAGAGCUAGAAAUAGCAAGUUAAAAUAAGGCUAGUCCGUUAUCAACUUGAAAAAGUGGCACCGAGUCGGUGC
DNA 1: GAGCGACGCTGCACCAAGATGTGTCGGGCAGTCTCTCCCGACCTCACCCG
DNA 2: CGGGTGAGGTCGGGAGAGACTGCCCGACACATCTTGGTGCAGCGTCGCTC
Does B8 bind (dCas9-6His [1])?
Result: binds
